# Read-outs that look alike come from different tables or passages of the source.
# Experiments:
# anti-mAb316P antibodies = assay: Example 2: anti-mAb316P antibody (ADA) bridging immunoassay and neutralizing antibody assay; type: in vivo, human
# Method: Other endpoints Anti-MAb316P Antibody Assessments: Anti-mAb316P antibodies included the antibody status (positive/negative) and antibody titers.
# Sampling time: Serum samples for anti-mAb316P antibody determination were drawn periodically throughout the study. The first scheduled sample at randomization visit was obtained before IMP injection (predose).
# Anti-mAb316P antibody samples were analyzed using a validated non-quantitative, titer-based bridging immunoassay. It involved an initial screen, a confirmation assay based on drug specificity, and a measurement of the titer of anti-MAb316P antibodies in the sample. The lower limit of detection was approximately 1.5 ng/mL.
# Samples that were positive in the ADA assay were assessed for neutralizing antibodies using a validated, non-quantitative, competitive ligand binding assay. The lower limit of detection based on a monoclonal positive control neutralizing antibody is 390 ng/mL.
# [1] = test system: patients with hypercholesterolemia at moderate cardiovascular (CV) risk; conditions: in vivo
# Description: The clinical laboratory data consisted of urinalysis and blood analysis, hematology (RBC count, red blood cell distribution width (RDW), reticulocyte count, hemoglobin, hematocrit, platelets, WBC count with differential blood count), standard chemistry (glucose, sodium, potassium, chloride, bicarbonate, calcium, phosphorous, urea nitrogen, creatinine, uric acid, total protein, LDH, albumin, γ Glutamyl Transferase [γGT]), Hepatitis C antibody, liver panel (ALT, AST, ALP, and total bilirubin), and CPK.
# Safety endpoints—Vital signs measurement: Vital signs included: HR, systolic and diastolic BP in sitting position.
# The safety analysis included all randomized and treated patients. Safety data were analyzed by descriptive statistics.
# [2] = test system: patients with primary hypercholesterolemia (heFH and non-FH) who are intolerant to statins; conditions: in vivo
# [3] = test system: patients with genotype-confirmed hoFH; conditions: ezetimibe 10 mg/day added to maximal dose of statins; cited from earlier work
# [4] = test system: healthy subjects and hypercholesterolemic patients (familial or non-familial); assay: Phase 1 studies of mAb316P (safety, tolerability, PK/PD; IV or SC); type: in vivo, human
# Method: Two studies were single dose administration (one study with IV administration of doses from 0.3 mg to 12 mg/kg and another study with SC administration of doses from 50 mg to 250 mg) conducted in healthy subjects with LDL-C>100 mg/dL for whom statin therapy was not indicated. The third study was conducted in hypercholesterolemic patients (familial or non-familial) with single to multiple SC administration of 50 mg, 100 mg, 150 mg and 200 mg either as add-on to stable doses of atorvastatin from 10 mg to 40 mg/day or as monotherapy.
# No pattern of adverse events (AEs) related to the drug was identified. […] The magnitude and duration of these reductions were positively related to the dose administered. It should also be noted that in the third study, results were similar in the familial and non-familial hypercholesterolemic patients.
# [5] = test system: patient population with non-familial hypercholesterolemia or with heterozygous familial hypercholesterolemia; assay: Phase 2 studies / earlier clinical data of mAb316P; type: in vivo, human
# Description: The efficacy on LDL-C lowering was associated with consistent results in total-C, ApoB, non-HDL-C and ApoB/ApoA-1 ratio and a positive trend for HDL-C, TG and Lp(a).
# [6] = Example 2: serum mAb316P concentration (ELISA); type: in vivo, human
# Method: If needed, total and free PCSK9 concentrations could be measured from the same PK sample.
# To collect information on the absorption phase, an optional PK sample was collected at 5 days (±2) after the week 22 IMP injection or at 5 days (±2) after any subsequent IMP injection while the subject was on treatment.
# The lower limit of quantification (LLQ) for this assay is 0.078 μg/mL.
# [7] = test system: patients with primary hypercholesterolemia (heFH and non-FH) who are intolerant to statins; assay: Example 3: safety (TEAEs, skeletal muscle-related events); conditions: in vivo
# [8] = clinical data available at commencement of Example 3 study
compound,measurement,setting,value
"O=C1[C@H](CC[C@H](O)c2ccc(F)cc2)[C@@H](c2ccc(O)cc2)N1c1ccc(F)cc1 [ezetimibe, reference compound]",patients with treatment emergent anti-drug antibodies,anti-mAb316P antibodies; in vivo,not observed
same,Influenza,[1]; human,3 (5.9) n (%)
same,Cardiac disorders (SOC),[2]; human,6 (4.8%) patients (%)
same,Ear and labyrinth disorders (SOC),[2]; human,4 (3.2%) patients (%)
same,General allergic TEAEs (MedDRA SMQ Hypersensitivity),[2]; human,9 (7.3%) patients (%)
same,Investigations (SOC),[2]; human,7 (5.6%) patients (%)
same,Psychiatric disorders (SOC),[2]; human,5 (4.0%) patients (%)
same,Skeletal muscle-related TEAEs (CMQ preferred term),[2]; human,40 (32.3%) patients (%)
same,TEAEs,[2]; human,100 (80.6%) patients (%)
same,Treatment-emergent SAEs,[2]; human,10 (8.1%) patients (%)
same,Treatment-emergent injection site reactions (ISRs),[2]; human,6 (4.8%) patients (%)
same,Treatment-emergent neurocognitive disorders,[2]; human,2 (1.6%) patients (%)
same,Treatment-emergent neurologic AEs,[2]; human,4 (3.2%) patients (%)
same,Treatment-emergent skeletal muscle-related events resulting in early treatment discontinuation,[2]; human,23 (18.5%) patients (%)
same,back pain,[2]; human,5.6%
same,early termination due to musculoskeletal and connective tissues disorders SOC events,[2]; human,26 [21.0%] patients [%]
same,fatigue,[2]; human,3.2%
same,headache,[2]; human,4.8%
same,insomnia,[2]; human,2 (1.6%) reports (%)
same,muscle spasms,[2]; human,7.3%
same,muscular weakness,[2]; human,1.6%
same,non-cardiac chest pain (treatment-emergent SAE preferred term),[2]; human,4 (3.2%) patients (%)
same,palpitations,[2]; human,2 (1.6%) reports (%)
same,paraesthesia,[2]; human,0%
same,patients who prematurely discontinued study treatment due to a TEAE,[2]; human,31 (25.0%) patients (%)
same,patients who prematurely terminated study treatment due to adverse events,[2]; human,31 (24.8%) patients (%)
same,rate of AEs,[2]; human,81%
same,vertigo,[2]; human,2 (1.6%) reports (%)
same,total reduction of LDL-C levels,[3],27%
"mAb316P: human anti-PCSK9 antibody; heavy chain SEQ ID NO:5, light chain SEQ ID NO:9; HCVR SEQ ID NO:1, LCVR SEQ ID NO:6",reductions from baseline in LDL-C,"[4]; Phase 1 studies, up to (maximum)",up to 60%
same,tolerability,"[4]; healthy subjects and patients, all doses",generally well tolerated at all doses
same,LDL-C lowering effect,[5]; [8],significant LDL-C lowering effect
same,tolerability,[5]; [8],generally well-tolerated
same,serum total concentrations of mAb316P during the 8-week follow-up period,[5]; preliminary PK data from Phase 2 studies,"still detectable, but at very low levels"
same,anti-drug antibody titers,anti-mAb316P antibodies; all anti-drug antibody-positive patients,≤ 240
same,neutralizing anti-drug antibody,anti-mAb316P antibodies; in vivo,no neutralizing anti-drug antibody
same,patients with treatment emergent anti-drug antibodies,anti-mAb316P antibodies; in vivo,6 (12%) patients (%)
same,"serum MAb316P Ctrough, mean (SD)","[6]; Week 4, non-uptitrated (n = 32)",5784.7 (2456.4) ng/mL
same,"serum MAb316P Ctrough, mean (SD)","[6]; Week 4, uptitrated at Week 12 (n = 14)",4533.9 (3996.5) ng/mL
same,"serum MAb316P Ctrough, mean (SD)","[6]; Week 12, non-uptitrated (n = 32)",5979.0 (2780.3) ng/mL
same,"serum MAb316P Ctrough, mean (SD)","[6]; Week 12, uptitrated at Week 12 (n = 14)",5702.9 (4816.4) ng/mL
same,"serum MAb316P Ctrough, mean (SD)","[6]; Week 24, non-uptitrated, 75 mg Q2W (n = 32)",6991.4 (4418.4) ng/mL
same,"serum MAb316P Ctrough, mean (SD)","[6]; Week 24, uptitrated to 150 mg Q2W at Week 12 (n = 14)",14772.2 (10201.7) ng/mL
same,change of serum mAb316P levels after uptitration,[6]; patients uptitrated at Week 12 (75 to 150 mg Q2W),approximately doubled
same,TEAE class infection,[1],42.3%
same,Cardiac disorders (SOC),[2],10 (7.9%) patients (%)
same,Ear and labyrinth disorders (SOC),[2],8 (6.3%) patients (%)
same,General allergic TEAEs (MedDRA SMQ Hypersensitivity),[2],12 (9.5%) patients (%)
same,Investigations (SOC),[2],9 (7.1%) patients (%)
same,Psychiatric disorders (SOC),[2],9 (7.1%) patients (%)
same,Skeletal muscle-related TEAEs (CMQ preferred term),[2],34 (27.0%) patients (%)
same,TEAEs,[2],104 (82.5%) patients (%)
same,Treatment-emergent SAEs,[2],12 (9.5%) patients (%)
same,Treatment-emergent injection site reactions (ISRs),[2],6 (4.8%) patients (%)
same,Treatment-emergent neurocognitive disorders,[2],3 (2.4%) patients (%)
same,Treatment-emergent neurologic AEs,[2],11 (8.7%) patients (%)
same,Treatment-emergent skeletal muscle-related events resulting in early treatment discontinuation,[2],19 (15.1%) patients (%)
same,back pain,[2],4.0%
same,early termination due to musculoskeletal and connective tissues disorders SOC events,[2],20 [15.9%] patients [%]
same,fatigue,[2],4.8%
same,headache,[2],4.8%
same,insomnia,[2],5 (4.0%) reports (%)
same,muscle spasms,[2],4.0%
same,muscular weakness,[2],0.8%
same,palpitations,[2],4 (3.2%) reports (%)
same,paraesthesia,[2],3.2%
same,patients who prematurely discontinued study treatment due to a TEAE,[2],23 (18.3%) patients (%)
same,patients who prematurely terminated study treatment due to adverse events,[2],23 (18.3%) patients (%)
same,rate of AEs,[2],82.5%
same,vertigo,[2],6 (4.8%) reports (%)
same,safety and tolerability,[2]; sc,generally safe and well tolerated
same,patients positively adjudicated for non-fatal MI,[7],one (0.8%) patient (%)

# — patent publication US20150140002A1, “USE OF A PCSK9 INHIBITOR TO TREAT […]” (Sanofi, priority 2013, published 2015)
